In PMC4562812:

Target: full-length recombinant H7 hemagglutinin (rH7) of A/Anhui/1/2013 (H7N9) virus (influenza A virus A/Anhui/1/2013 (H7N9))
Assay: SEC

## full-length recombinant H7 hemagglutinin (rH7) of A/Anhui/1/2013 (H7N9) virus (natural protein)
  stoichiometry N: 3
